Data on 3 molecules can be found in publication PMC8533620, “The Role of the C-Terminal Lysine of S100P in S100P-Induced Cell Migration and Metastasis” (Biomolecules, 2021).

Changes are numbered by the printed parent chain. Names may count otherwise. “And” between values parts separate entries of the source, which are not always exact repeats. Equal entries are not always repeated.

This assay concerns the target T1, recombinant protein consisting of the 149 C-terminal amino acids of NMMIIA (UniProt P35579 1812-1960).
T1 construct: non-muscle myosin heavy chain isoform IIA (NMMIIA), the 149 C-terminal amino acids; also called rNMMIIA; recombinant C-terminal fragment of non-muscle myosin II heavy chain; source: recombinant
T1 sequence (looked up): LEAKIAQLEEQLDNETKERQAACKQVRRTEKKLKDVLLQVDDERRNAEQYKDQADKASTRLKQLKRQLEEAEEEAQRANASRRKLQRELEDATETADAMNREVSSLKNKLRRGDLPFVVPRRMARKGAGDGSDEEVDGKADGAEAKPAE
As to the kind of experiment: resonant mirror biosensor (IAsys); rNMMIIA immobilised, rS100P variants in solution; dual-channel IAsys resonant mirror biosensor; association and dissociation curves fitted a single-site model at least as well as a two-site model; equilibrium and kinetic Kd. To be noted: both partners purified.

B1: ΔK95 mutant recombinant S100P protein (natural protein, human, UniProt P25815 1-95, looked up)
chain: MTELETAMGMIIDVFSRYSGSEGSTQTLTKGELKVLMEKELPGFLQSGKDKDAVDKLLKDLDANGDAQVDFSEFIVFVAAITSACHKYFEKAGL
notes: S100P, human, with the C-terminal lysine (K95) deleted, so that the chain ends with leucine 94; Identity confirmed by mass spectrometry; also called ΔK95 S100P; ΔK95 mutant rS100P; source: recombinant protein from pET15b vector after site-directed mutagenesis; details in Supplementary Methods S1
For B1, the Kd (as a rule, the free concentration of one partner at which half of the binding sites on the other are occupied at equilibrium, for simple one-to-one binding) is 2700 nM and 6000 nM.

B2: wild-type recombinant S100P protein (natural protein, human, UniProt P25815 1-95, looked up)
chain: MTELETAMGMIIDVFSRYSGSEGSTQTLTKGELKVLMEKELPGFLQSGKDKDAVDKLLKDLDANGDAQVDFSEFIVFVAAITSACHKYFEKAGLK
notes: S100P, human, 95-amino-acid monomer; cDNA encoding the wild-type protein in pET15b; primers on GenBank NM_005980 run from the ATG (95) to the stop codon (382); also called rS100P; wild-type rS100P; source: recombinant protein from a cDNA in pET15b vector; details in Supplementary Methods S1
In the case of B2, the Kd lay in the range of 370 to 470 nM.

B3: K95A mutant recombinant S100P protein (natural protein, human, UniProt P25815 1-95, looked up)
chain: B2 chain with K95A
notes: S100P, human, 95 amino acids, with the C-terminal lysine replaced by alanine; Identity confirmed by mass spectrometry; also called K95A S100P; K95A mutant rS100P; source: recombinant protein from pET15b vector after site-directed mutagenesis; details in Supplementary Methods S1
B3: the Kd was 2300 nM and 4100 nM.
